System: MS2 coat protein
Test: apparent KD of MS2 coat protein; designed switch direction (-1 OFF switch, 1 ON switch): -1; higher = weaker reporter binding
Outline: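 Each step of the titration lasted 0.8–1.5 h at the lowest concentration and 10–20 min at the highest. The protein, SNAP-549-labelled MS2 coat protein, went from 0.7 or 1.5 nM doubling to 3 µM over RNA switches transcribed on Illumina chips by stalled E. coli RNA polymerase. Normalised cluster fluorescence was curve-fitted, and the per-design median over clusters is given as apparent KD.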

[1] = Eterna round: R95, input ligand: microRNA oligo, concentration not stated
[2] = Eterna round: R95, input ligand: FMN 200 uM
[3] = Eterna round: R95, input ligand: none
[4] = input ligand: microRNA oligo, concentration not stated

Sequence	apparent KD of MS2 coat protein [1]	apparent KD of MS2 coat protein [2]	apparent KD of MS2 coat protein [3]	apparent KD of MS2 coat protein [4]	apparent KD of MS2 coat protein (input ligand: FMN 200 uM)	apparent KD of MS2 coat protein (input ligand: none)
AAUAACAGAGGAUAUACUAUUUUAUGUGUUUGUUGUUUUAAACAUGAGGAUCACCCAUGUAGAAGGCUGAUUGA [JMF 74] (puzzle: Exclusion 2)	31.1 nM					
AGGUAACAUGAGGAUCACCCAUGUCAGGAUAUCAGGAAGAUUAGAAUAGAGUAGAGGAUGAGAAGGGACUAUAU [Excluse me! 18- Jieux - Exclusion 1] (puzzle: Exclusion 1)	31.7 nM	31 nM	43.1 nM			
GGUGCGUUUGUGAGGAUAUGCUGGUCCUUGGUUCGGCAGAAGGCACAUGAGGAUCACCCAUGUGGUGUCGCUCC [salish99_Bmod_Ex4_050] (puzzle: Brourd's mod of Exclusion 4)	36.4 nM					
UAUAUAUAGUAAGGAUAUGUAUUUCUUUUAUAAACAGAAGGUACUGACAUGAGGAUCACCCAUGUUUUAGUGUGGGCAUGUAGA [JMF's solution 12] (Eterna round: R96, puzzle: Exclusion NG 1)				63.1 nM		
AAUUCUAGGGUCAGACGCACAAGCUUUUUGUUCGUUUUAACAUGAGGAUCACCCAUGUCUAGUGGAUCUGAUCGGGC [JL ViennaUCT Isreen mod 9] (puzzle: Sensor v3, turn-off variant 2)	71.4 nM	28.6 nM	31 nM			
ACAUGUGUUGUAGGAUAUAGGACACAUGAGGAUCACCCAUGUGGAUUCAUGUCUAAGGAAGCGUCCUAGAAGGACGACAACAUG [Ex NG2 #26] (Eterna round: R96, puzzle: Exclusion NG 2)				16.3 nM	29.1 nM	20 nM
CAUGAUUGGGAAGGAUAUUGACCUAGUUAGCGCCGAGAAGGUCCCUGUCACAUGAGGAUCACCCAUGUGAAUCUGGUGUUCGAG [Ex NG1 #94] (Eterna round: R96, puzzle: Exclusion NG 1)				17.9 nM	36.7 nM	19.7 nM
AAGAACAGAGGAUAUCGCGGGCAGCACAUGAGGAUCACCCAUGUGAUGCUCCGCGGGCCGCGAGAAGGCUGAAAUG [Dizabe] (puzzle: Exclusion 5)	9.5 nM	14.2 nM	12.9 nM			
CAUUUCUGUCGUUGAUCCAACAUGAGGAUCACCCAUGUCUCUUUAGCUUUUUGCUCGUCUUAUCCUCCUUUGUUCAC [JR_STOV1_Sub099] (Eterna round: R97, puzzle: Sensor, turn-off variant 1)					499 nM	835 nM
CCGGUUGGCGCAGGAUAUACAUGAGGAUCACCCAUGUUCAUGAGGAUCGCCCAUGAGUUUUUGUUGUAGAAGGGUGGCCCGGCC (Eterna round: R96, puzzle: Exclusion NG 2)				70 nM	92.4 nM	84 nM
CCCGGGUUAGGAUAUUCCUCGUGCAGCUGACAGCCACGGGAGAAGAAGGGACAUGAGGAUCACCCAUGUGAAUA [Eternabot (L2) Solution 47] (Eterna round: R97, puzzle: Exclusion 4)					42 nM	32.9 nM
AGUAACUAUCACGAAAGUGAUAGUUACAAAACAAGUGAAACAUGAGGAUCACCCAUGUCCUCACUUGCUCGUCUUAU [Sensor 3 - 5] (puzzle: Sensor v3, turn-off variant 2)	128 nM	14.2 nM	13.4 nM			
CCCUCACAUGAGGAUCACCCAUGUCAGGAUAUUCAAAGCGCAAAUGCGCCAAAUGCAGGAAGAAGGGACGUGCC [Bisoar] (Eterna round: R96, puzzle: Exclusion 1)				10.3 nM	18.6 nM	15 nM
UUUUAACAUGAGGAUCACCCAUGUGAGGAUAUCGUAAUUUAUAUUAAUAUUAAUAAAACGAGAAGGCACAUUUU [JMF 5] (puzzle: Exclusion 1)	143 nM	138 nM	85.2 nM			
CCCUCAGUCUAGGAUAUAACAAUCAGAUAUCAGUUAGAAGGAGACACAUGAGGAUCACCCAUGUGGGUCAAUAA [Bearener] (puzzle: Exclusion 6)	20.2 nM	50.7 nM	21.3 nM			
CUAGUAUAUCAGGAUAUGAUUUUAUAUAUUGGAUCAGAAGGGAUAACAUGAGGAUCACCCAUGUUAAGGAGUGA [JR_Ex6_Sub040] (Eterna round: R97, puzzle: Exclusion 6)					155 nM	45 nM

Reference: the supplement of paper PMC9170038
